T1: P. falciparum MSP-1 subunit p83 (plate-bound, isolated) (Plasmodium falciparum, UniProt Q8I0U8 20-722)
T1 construct: domain: p83
T1 sequence: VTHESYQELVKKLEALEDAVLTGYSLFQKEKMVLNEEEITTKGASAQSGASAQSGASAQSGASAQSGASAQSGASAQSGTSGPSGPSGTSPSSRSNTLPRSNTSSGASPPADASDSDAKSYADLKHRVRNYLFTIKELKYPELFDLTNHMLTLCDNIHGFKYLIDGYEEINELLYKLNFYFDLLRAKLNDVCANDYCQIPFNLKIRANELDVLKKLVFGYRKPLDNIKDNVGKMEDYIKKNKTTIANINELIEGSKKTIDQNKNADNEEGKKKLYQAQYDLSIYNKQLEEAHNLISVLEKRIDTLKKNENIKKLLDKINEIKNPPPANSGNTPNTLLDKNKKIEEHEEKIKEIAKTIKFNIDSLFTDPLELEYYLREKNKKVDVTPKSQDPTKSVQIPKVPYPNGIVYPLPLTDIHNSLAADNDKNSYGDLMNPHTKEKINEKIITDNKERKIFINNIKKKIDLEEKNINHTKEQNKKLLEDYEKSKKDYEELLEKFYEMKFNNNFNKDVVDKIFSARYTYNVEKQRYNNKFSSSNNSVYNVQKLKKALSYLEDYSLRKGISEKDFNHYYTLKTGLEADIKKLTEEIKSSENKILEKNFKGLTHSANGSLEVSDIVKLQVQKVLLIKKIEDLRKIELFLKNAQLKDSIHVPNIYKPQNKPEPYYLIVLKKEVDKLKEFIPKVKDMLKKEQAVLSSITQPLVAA

T2: P. falciparum MSP-1 subunit p38 (plate-bound, isolated) (Plasmodium falciparum, UniProt Q8I0U8 911-1326)
T2 construct: domain: p38
T2 sequence: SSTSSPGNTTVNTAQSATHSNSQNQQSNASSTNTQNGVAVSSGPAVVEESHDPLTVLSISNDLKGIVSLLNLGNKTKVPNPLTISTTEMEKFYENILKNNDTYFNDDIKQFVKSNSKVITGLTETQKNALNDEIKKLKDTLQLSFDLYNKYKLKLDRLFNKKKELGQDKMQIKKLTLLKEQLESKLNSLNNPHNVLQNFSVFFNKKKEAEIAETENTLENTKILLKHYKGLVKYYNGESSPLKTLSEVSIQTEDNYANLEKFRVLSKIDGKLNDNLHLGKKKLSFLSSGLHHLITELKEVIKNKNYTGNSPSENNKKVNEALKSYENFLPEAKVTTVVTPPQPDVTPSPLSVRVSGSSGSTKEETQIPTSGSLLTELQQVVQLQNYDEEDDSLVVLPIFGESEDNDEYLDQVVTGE

T3: MICB expressed on transfected B16F10 melanoma cells (human, UniProt Q29980 23-383)
T3 construct: whole, on cells; also called MICB-transfected cells
T3 sequence (looked up): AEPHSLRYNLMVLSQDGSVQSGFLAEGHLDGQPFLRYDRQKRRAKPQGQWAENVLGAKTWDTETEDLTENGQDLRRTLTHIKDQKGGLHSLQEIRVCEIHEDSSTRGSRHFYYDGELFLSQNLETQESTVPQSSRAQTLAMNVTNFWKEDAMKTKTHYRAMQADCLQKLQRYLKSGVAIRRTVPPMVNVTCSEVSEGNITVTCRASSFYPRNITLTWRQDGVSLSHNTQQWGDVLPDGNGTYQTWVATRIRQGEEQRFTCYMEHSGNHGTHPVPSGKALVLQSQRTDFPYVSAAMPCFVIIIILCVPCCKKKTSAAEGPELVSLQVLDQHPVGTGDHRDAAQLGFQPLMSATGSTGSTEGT

T4: P. falciparum MSP-1 subunit p42 (plate-bound, isolated) (Plasmodium falciparum, UniProt Q8I0U8 1327-1699)
T4 construct: domain: p42
T4 sequence: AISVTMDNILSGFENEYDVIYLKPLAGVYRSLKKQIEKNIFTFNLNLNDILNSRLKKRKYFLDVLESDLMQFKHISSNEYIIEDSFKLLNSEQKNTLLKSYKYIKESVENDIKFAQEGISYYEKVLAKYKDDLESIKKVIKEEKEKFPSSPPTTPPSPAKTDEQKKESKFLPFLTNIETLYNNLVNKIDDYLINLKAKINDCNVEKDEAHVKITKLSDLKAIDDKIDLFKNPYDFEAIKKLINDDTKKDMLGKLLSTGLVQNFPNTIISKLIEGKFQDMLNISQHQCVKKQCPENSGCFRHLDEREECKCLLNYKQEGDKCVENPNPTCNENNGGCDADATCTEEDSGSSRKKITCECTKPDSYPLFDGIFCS

B1: anti-p42 A6 VHH (P. falciparum MSP-1 specific) (VHH)
VHH: QVQLVESGGGLVQAGGSLRLSCAASARTFSYYGAAWFRQAPGKEREFVAAVSWNGDDTYYADSVKGRFTISRDNTKNTVSLQMNALKPEDTAVYYCEAAAYGRDWRQSANYVYWGQGTQVTVSS
B2: anti-p42 G11 VHH (P. falciparum MSP-1 specific) (VHH)
VHH: QVQLVETGGGLVQAGGSLRLSCVVSGRSLILYGMGWFRQAPGKEREFVAGIVWNGGWTYYADSVKGRFTISRDTAKNTVYLQMNSLKPEDTAVYSCAAGPGDGRRRVAPAEYNYWGQGTQVTVSS
B3: anti-MICA VHH nanobody clone A1 (VHH)
VHH: QVQLVESGGGLVQPGGSLRLSCAASGFTLDYYDIGWFRQAPGKEREGVSCITSSDGSTYYADSVKGRFTISRDNAKNTVYLQMNSLKPEDTAVYYCAADCTKPQWKSKTEAWGQGTQVTVSS
B4: anti-MICA VHH nanobody clone H3 (VHH)
VHH: QVQLVETGGGLVQAGGSLRLSCAASGRTFSSYAMGWFRQAPGKEREFVAGISWSGGSTYYGDSVKGRFTISRDNAKNTVYLLMNSLKPEDTAVYYCAADLVRSYGSSWPSLFQFRNPEDVQDGMDYWGKGTLVTVSS
B5: anti-p83 B4 VHH (P. falciparum MSP-1 specific) (VHH)
VHH: QLQLVESGGGLAQAGGSLRLSCAASGRTSSTKPMGWFRQAPGLEREFVASISWLGGSTLYSDSVKGRFTISRDNAKNTVYLQMNSLKSEDTAVYYCAGGTSAYSGRDSSRYEYWGQGTQVTVSS
notes: also called anti-p84 B4

What was measured:
[1] = molecular target: T1, P. falciparum MSP-1 subunit p83 …; assay: Western blot against PfMSP-1 subunits
[2] = molecular target: T2, P. falciparum MSP-1 subunit p38 …; assay: Western blot against PfMSP-1 subunits
[3] = molecular target: T3, MICB expressed on transfected B16F10 …; assay: flow cytometry of transfected B16F10 cells, biotinylated nanobody with streptavidin-PE
[4] = molecular target: T4, P. falciparum MSP-1 subunit p42 …; assay: Western blot against PfMSP-1 subunits

Binder | binding result [1] | binding result [2] | binding result [3] | binding result [4]
B1 | no binding | no binding |  | 
B2 | no binding | no binding |  | 
B3 |  |  | no binding | 
B4 |  |  | no binding | 
B5 |  | no binding |  | no binding

— patent US20250144228A1 (CHILDREN S MEDICAL CENTER, published 2025)
